Measured values published in patent US7056886B2, “GLP-2 formulations” (NPS Allelix, Corp., priority 1999, dated 2006).

Assays:
[1] = pH solubility profile of h[Gly2]GLP-2 (precipitation); format: physicochemical
Protocol: (§1) Based on pH solubility profiles, it was determined that a phosphate buffer provides optimal buffering capacity for GLP-2 peptides. […] L-histidine acts as a stabilizing amino acid that increases the length of time that the GLP-2 peptide remains intact prior to degradation.

[2] = Temperature profile / phase transition of h[Gly2]GLP-2; format: physicochemical
Protocol: It has also been discovered that Tween 80®, salt, and arginine are not suitable materials for producing a stable formulation for h[Gly2]GLP-2.
as §1

h[Gly2]GLP-2
pH at which the analog precipitated [1]: less than 5.5 | phase transition temperature ([2]; depending upon the salt concentration): 40-55 °C | behaviour in the presence of salt ([2]; in the presence of salt): becomes hydrophobic in the presence of salt | heat-induced and salt-dependent transition temperature ([2]; temperature profiles): about 40 °C
